Test results reported in US20110118131A1 (published 2011).
Substitutions are numbered along the chain they refer to. Numbers in names are those of the source.

B1: XPA23 Fab, heavy chain S52N (Fab, V domains shown)
VH: EVQLLESGGGLVQPGGSLRLSCAASGFTFSKYFMFWVRQAPGKGLEWVSVINPSGGMTRYADSVKGRFTISRDNSKNTLYLQMNSLRAEDTAVYYCARVGYGGNSDYWGQGTLVTVSS
VL: DIQMTQSPSSVSASVGDRLTIICRASQDINRWLAWYQQTPGNAPKLLIHSATSLQSGVPSRFSGSGSGTDFTLTINSLQPEDFATYYCQQADSFPLTFGGGTKVEIK
B2: XPA23 Fab, heavy chain S52Q (Fab, V domains shown)
VH: B1 VH with N52Q
VL: B1 VL
B3: XPA23 Fab, heavy chain S52R (Fab, V domains shown)
VH: B1 VH with N52R
VL: B1 VL
B4: XPA23 Fab, heavy chain S52W (Fab, V domains shown)
VH: B1 VH with N52W
VL: B1 VL
B5: XPA23 Fab, heavy chain S52Y (Fab, V domains shown)
VH: B1 VH with N52Y
VL: B1 VL
B6: XPA23 Fab, heavy chain S54D (Fab, V domains shown)
VH: B1 VH with N52S, S54D
VL: B1 VL
B7: XPA23 Fab, heavy chain S54E (Fab, V domains shown)
VH: B1 VH with N52S, S54E
VL: B1 VL
B8: XPA23 Fab, heavy chain S54F (Fab, V domains shown)
VH: B1 VH with N52S, S54F
VL: B1 VL
B9: XPA23 Fab, heavy chain S54K (Fab, V domains shown)
VH: B1 VH with N52S, S54K
VL: B1 VL
B10: XPA23 Fab, heavy chain S54N (Fab, V domains shown)
VH: B1 VH with N52S, S54N
VL: B1 VL
B11: XPA23 Fab, heavy chain S54Q (Fab, V domains shown)
VH: B1 VH with N52S, S54Q
VL: B1 VL
B12: XPA23 Fab, heavy chain S54R (Fab, V domains shown)
VH: B1 VH with N52S, S54R
VL: B1 VL
B13: XPA23 Fab, heavy chain S54W (Fab, V domains shown)
VH: B1 VH with N52S, S54W
VL: B1 VL
B14: XPA23 Fab, heavy chain S54Y (Fab, V domains shown)
VH: B1 VH with N52S, S54Y
VL: B1 VL
B15: XPA23 Fab, heavy chain S105E (Fab, V domains shown)
VH: B1 VH with N52S, S105E
VL: B1 VL
B16: XPA23 Fab, heavy chain S105F (Fab, V domains shown)
VH: B1 VH with N52S, S105F
VL: B1 VL
B17: XPA23 Fab, heavy chain S105H (Fab, V domains shown)
VH: B1 VH with N52S, S105H
VL: B1 VL
B18: XPA23 Fab, heavy chain S105N (Fab, V domains shown)
VH: B1 VH with N52S, S105N
VL: B1 VL
B19: XPA23 Fab, heavy chain S105Q (Fab, V domains shown)
VH: B1 VH with N52S, S105Q
VL: B1 VL
B20: XPA23 Fab, heavy chain S105R (Fab, V domains shown)
VH: B1 VH with N52S, S105R
VL: B1 VL
B21: XPA23 Fab, heavy chain S105W (Fab, V domains shown)
VH: B1 VH with N52S, S105W
VL: B1 VL
B22: XPA23 Fab, heavy chain S105Y (Fab, V domains shown)
VH: B1 VH with N52S, S105Y
VL: B1 VL
B23: XPA23 Fab, heavy chain T28E (Fab, V domains shown)
VH: B1 VH with T28E, N52S
VL: B1 VL
B24: XPA23 Fab, heavy chain T28G (Fab, V domains shown)
VH: B1 VH with T28G, N52S
VL: B1 VL
B25: XPA23 Fab, heavy chain T28H (Fab, V domains shown)
VH: B1 VH with T28H, N52S
VL: B1 VL
B26: XPA23 Fab, heavy chain T28K (Fab, V domains shown)
VH: B1 VH with T28K, N52S
VL: B1 VL
B27: XPA23 Fab, heavy chain T28Q (Fab, V domains shown)
VH: B1 VH with T28Q, N52S
VL: B1 VL
B28: XPA23 Fab, heavy chain T28R (Fab, V domains shown)
VH: B1 VH with T28R, N52S
VL: B1 VL
B29: XPA23 Fab, heavy chain T28W (Fab, V domains shown)
VH: B1 VH with T28W, N52S
VL: B1 VL
B30: XPA23 Fab, heavy chain T58D (Fab, V domains shown)
VH: B1 VH with N52S, T58D
VL: B1 VL
B31: XPA23 Fab, heavy chain T58E (Fab, V domains shown)
VH: B1 VH with N52S, T58E
VL: B1 VL
B32: XPA23 Fab, heavy chain T58F (Fab, V domains shown)
VH: B1 VH with N52S, T58F
VL: B1 VL

Molecular target: T1, IL-1beta (UniProt P01584 117-269)
T1 construct: also called IL-1β
Experiment: Biacore

Binder	binding result	fold difference in affinity vs parental
B1	no binding	
B2	no binding	
B3	no binding	
B4	no binding	
B5	no binding	
B6		0.12 fold
B7		0.03 fold
B8		0.87 fold
B9		1.53 fold
B10		0.08 fold
B11		1.01 fold
B12		1.43 fold
B13		1.07 fold
B14		0.99 fold
B15		1.17 fold
B16		1.25 fold

Binder	binding result	fold difference in affinity vs parental
B17		0.05 fold
B18		0.85 fold
B19		0.98 fold
B20	no binding	
B21	no binding	
B22	no binding	
B23	no binding	
B24	no binding	
B25	no binding	
B26	no binding	
B27	no binding	
B28	no binding	
B29	no binding	
B30		0.12 fold
B31	no binding	
B32		1.04 fold
